The target of the data set is IL-6 (human recombinant, Invitrogen) (Homo sapiens, UniProt P05231 30-212). As to the kind of experiment: SWCNT NIR fluorescence; PBS, 5250 ng/mL IL-6, 3 h; p = 0.66; 0.5 mg/L SWCNT-ssDNA in 1x PBS (or 1x PBS + 10% FBS), 5250 ng/mL IL-6, 120 uL, up to 180 min; pH and temperature not stated in the material. To be noted: protein: commercial.
Chain of IL-6 (human recombinant, Invitrogen) (P05231 30-212): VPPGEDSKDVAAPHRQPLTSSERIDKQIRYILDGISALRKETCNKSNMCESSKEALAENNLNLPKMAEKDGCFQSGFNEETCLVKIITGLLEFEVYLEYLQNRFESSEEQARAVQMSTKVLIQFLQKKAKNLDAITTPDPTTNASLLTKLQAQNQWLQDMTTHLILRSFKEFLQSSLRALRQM

B1: (GT)15 control (ssDNA)
DNA: GTGTGTGTGTGTGTGTGTGTGTGTGTGTGT
modifications: noncovalently adsorbed on SWCNT
With B1, the binding result is recorded as “no binding”.

Values taken from PMC11287749, “Optical Aptamer-Based Cytokine Nanosensor Detects Macrophage Activation by Bacterial Toxins”.
